From the nanobody polyreactivity screen of Harvey et al. (2022)

Assay: yeast display, Sf9 membrane polyspecificity reagent, FACS + sequencing; frameworks hold sequencing errors
Method in brief: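 Nanobodies came from a synthetic yeast display library in Saccharomyces cerevisiae BJ5465, induced with galactose for 36–48 hours and stained for 1 hour at 4 °C with 10% biotinylated, detergent-solubilized Sf9 membrane reagent. Cells were enriched on streptavidin microbeads and then FACS-sorted, with low and high (top ~1%) gates set on anti-HA fluorescence for expression and streptavidin fluorescence for reagent binding. Each polyreactivity label reflects the gate a clone came from. Genes were amplified by colony PCR, sequenced by MiSeq 2 × 250 and filtered by CDR length.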

## QVQLVESGGGLVQAGGSLRLICAASGIIFPVYDMGWYRQAPGKERELVASITDSGGSTSYADSVKGRFTISRDNAKNTVYLQLNSLKPEDTAVYYCAVTDSDTNYYGYLSYDYWGQGTQVNVSS
  polyreactivity (PSR sort gate): low polyreactivity

## QVQLVESGGGLVQAGGSLRLSCAASGSSKLMLWDGIDRRLGKKGSWLPLFVLVVLRNYADSVKGRFTISRDNAKNTVFLHMNSLKPEDTAVYYCAATPIGSGGWGDYWGQGTQVTVSS
  polyreactivity (PSR sort gate): low polyreactivity

## QVQLVESGGGLVQAGGSLRLSCPSSGIIFYYYAMGWYRQAPGKERELVAAINFSVGGTYYADSVKGRFTISRDNAKNTVYLQMNSEKPEDTEVYYCAKDIVIPATYVEYDYWGQGTQVTVSS
  polyreactivity (PSR sort gate): low polyreactivity

## QVQLVESGGGLVQAGGSLRLSCAASGRIFDLNAMGWYRQAPGKERELVAAISYSGDRTYYADSVKGRFTISRDNAKNTVYLQMNSLKPEDTAVYYCNVRKTWYGYSVTGRYDYWGQGTQVTVSS
  polyreactivity (PSR sort gate): low polyreactivity

## QVQLVESGGGLVQAGGSLRLSCAASGSTFTYNAMGWYRHAPGKERELVASISSGTTTYYADSVKGRFTISRDNAKNTVYLQLNSLKPEDTAVYFCAVDSWSRVQGWLAHNYDYWGQGTQVTVSS
  polyreactivity (PSR sort gate): low polyreactivity

## QVQLVESGGGLVQAGGSLRLSCAASGRIFTWYAKGWYRQAPGKERELVAAISWSGGRTYYADSVKGRFTISRDNAKNTVYLQMNSLKPEDTAVYYCNAVPSVRWRYDYWGQGTQVTVSS
  polyreactivity (PSR sort gate): high polyreactivity

## QVQLVESGGGLVQAGGSLRLSCAASGSTFSVYAMGWYRQAPGKERELVAAITSGGSTNYADSVKGRFTISRDNAKNTVYLQMNSLKPEDTAVYYCAAYLYDTIYTSYREYDYWGQGTQVTVSS
  polyreactivity (PSR sort gate): low polyreactivity

## QVQHVESGGCLVQAGGSLRLSCAASGLIIKSYVMGWYRQAPGKERELVAGITGSGGTTYYADSVKGRFTISRDNAKNTVDLQMNSLKPEDTAVYYCDARSRSRPKYDYWGQGTQVTVSS
  polyreactivity (PSR sort gate): high polyreactivity

## QVHLVESGGGLVQAGGSLRLSCAASGRIFFPNAMGWYRQAPGKERELVAGISIGGSTKYADSVKGRFTISRDNAKNTVYLQMNSLKPEDTAVYYCAAGRGRHTYNYWGQGTQVTVSS
  polyreactivity (PSR sort gate): low polyreactivity

## QVQLVDSGGGLVQAGGSLRLTCAASGRTFRYNAMGWYRQAPGKERDLVARISRGGSPYADSVKGRFTISRDNAKNTVYLQMNSLKPEDSAVYYCAADPTKHNQSEYYYWGQGTQVNVSS
  polyreactivity (PSR sort gate): low polyreactivity

## QVQLVESGGGLVQAGGSLRLSCAASGSTFRFYAMGWYRQAPGKERELVATISSSGGTTYYADSVKGRFTISRDNAKNTVYLQMNSLKPEDTAVYYCAKDAFGWGRVYYYRSGYWGQGTQVTVSS
  polyreactivity (PSR sort gate): high polyreactivity

## QVQLVESGGGLVQAGGSLRLSCAASGFTFKYYAMGWYRQAPGKERELVAVINQSGGSTSYADSVKGRFTISRDNAKNTVYLQMNSLKPEDTAVYYCAALVGLFWLWNYDYWGQGTQVTVSS
  polyreactivity (PSR sort gate): high polyreactivity

## QVQLVESGGGLVQAGGSLRLSCAASGFTFDYYAMGWYRQAPGKERELVAVITSRGGSTFYADSVKGRFTISRDNAKNTVYLQMNSLKPEDTAVYYCARQHYRLFRPYDYWGQGTQVTVSS
  polyreactivity (PSR sort gate): high polyreactivity

## QVQLVESGGGLVQAGGSLRLSCAASGRPFGGNTMGWYRQAPGKERALVAAISFSGGSTYYADSVKGRFSSSRDNAKNTVYFQMNSLKPEDTAVYYCARDDYSHSFLTYDYWGQGTQVTVSS
  polyreactivity (PSR sort gate): low polyreactivity

## QVQLVESGGGLVQAGGSLRLSCASSGSIFQYNAMGWYRQAPGKERELVAAINGGGSTYYADSVRGRFTISRDNAKNTVYLQMNSLKPEDTAVYYCAARHGESHYDYWGQGTQVTVSS
  polyreactivity (PSR sort gate): low polyreactivity

## QVQLVESGRRLVQAGGSLRLSCAASGSTFYGYGMGWYRQAPGKERELVAAITGSGDTTYYADSVKGRFTISRDNAKNTVYLQLNSLKPEDTAVDYCNARWHAEYDYWGQGTQVTVSS
  polyreactivity (PSR sort gate): low polyreactivity

## QVQLEESGGGLVQAGGSLRLSCAASGSTFTRYAMGWYRQAPGKERELVAAISRGGSTNYADSVKGRFTISRDNAKNTVYLQMNSLKPEDTAVYYCAARSWYLRYDYWGQGTQVTVSS
  polyreactivity (PSR sort gate): high polyreactivity

## QVHLVESGGGLVQAGGSLRLSCAASGRTFYDYTMGLDRQAPGKERELVAAISQRGGSTYYADSVKGRFTISRDNAKNTVYLQMNSLKPEDTAVYYCAARTSYSGNKYYYWGQGTQVTVSS
  polyreactivity (PSR sort gate): high polyreactivity

## QVQLVESGGGLVQAGGSLRLSCAASGLIFRVYAMGWYRQAPGKERELVAAISISDGTTNYADSVKGRFTISRDNAKNTVYLQMNSLKPEDTAVYYCAADYDFYDFSYQSWSEENYWGQGTQVTVSS
  polyreactivity (PSR sort gate): low polyreactivity

## QVQLVESGGGLVQAGGSLRLSCAASGRIFGQYAMGWYRQAPGKEREFVAGISTTGGSTYYADSVKGRFTISRDNAKNTVYLQMNSLKPEDTAVYYCAVRINWSRWYHYYTYNYWGQGTQVTVSS
  polyreactivity (PSR sort gate): high polyreactivity

## QVQLVESGGGLVQAGGSLRLSCAASGSTSVTNAMGWYRQAPGKEREFFATINYSGTSTYYADSVKGRFTISRDNAKNTVYLQMNSLNPEDTAVYYCYAHDFGFYRFSLPGYDYWGQGTQVTVSS
  polyreactivity (PSR sort gate): low polyreactivity

## QVLLVESGGGLVQAGGSLRLSCAASGLTFERYAMGWYRQAPGKERELVAAISIRGGSTYYADSVKGRFTISRDKAMNTVYFQMKSLKPEDTAVDYCSADGSGREYDYWGQGTQVTVSS
  polyreactivity (PSR sort gate): low polyreactivity

## QVQLVESGGGLVQAGGSLRLSCAASGLIFPYYTMGWYRQAPGKEGELVAVINRGGSTSYADSVKGRFTISRDNEKISVYLQMNSLKPEYTAVYYCARRTPYYTSYAFDSWGQGTQVTVSS
  polyreactivity (PSR sort gate): high polyreactivity

## QGQLVESGGGLVQAGGSLRLSCAASGSIFPDYAMGWYRQAPGKERELVAAITWRDDSTYYADSVKGRFTISRDNAKNTVYLQMNSLKPEDTAVYYCIASALDPLYAKDDYWGQGTQVTVSS
  polyreactivity (PSR sort gate): low polyreactivity

## QVQLVESGGGLVQAGGSLRLSCAASGIIFHYYAMGWSRPEPGKERELVAAITSSGDRTYYADSVKGRFTISRDTAKNTVYLQMNSLKPEDTAVYYCAKDVWRWFGYWGQGTQVTVSS
  polyreactivity (PSR sort gate): high polyreactivity

## QVQLVESGGGLVQAGGSLRLSCAASGRTFSGYAMGWYRQAPGKERELVASITYSGGSTYYADSVKGRFTISRDNAKNTVYLQMNSLKPEDTAVYYCNARSSGKGRSNAYYKGHGYWGQGTQVTVSS
  polyreactivity (PSR sort gate): high polyreactivity

## PVQLVESGGGLVQAGGSLRLSCAASGFIFSWYAMGWYRPAPGKDRELVAAISRSGGSTYADSVKGRFTIARDNAKNTVYLQMNSLKPEDTAVYYCAAGSYWSYWDSRYDYWGQGTQVTVSS
  polyreactivity (PSR sort gate): low polyreactivity

## QVQLVESGGGLVQAGGSLRLSCAASGSTFKWYAMGLYRQAPGKERELVAAIDSRGGSTYYADSVKGRFTISRDNAKNTVFLQMISLKPEDTAVYYCNIYPHYSFQSHNYWGQGTQVTVSS
  polyreactivity (PSR sort gate): high polyreactivity

## QVQLVESGGGLVQAGGSLRLSCAASGFTFTGYAMGWYRQAPGKERELVAAISHDGGSTYYADSVKGRFTISRDNAKNTVYLQMNSLKPEDTAVYYCAAAFRAAGRTVRYYWGQGTQVTVSS
  polyreactivity (PSR sort gate): high polyreactivity

## QVQLVESGGGLVQAGGSHRLSCAASGLIFNYYAMGGYRQAPGKERELVASITGGDSTNYADSVKGRFTISRDNAKNTVYLQMNSLKPEDTAVYYCAAEFYGSSYGYRTYDYYYWGQGTQVTVSS
  polyreactivity (PSR sort gate): low polyreactivity

## QVQLVESGGGLVQAGGSLRLSCASSGRTYTLNAMGWYRQAPGKERELVAAIRRGGSTYYADSVKGRFTISRDNAKNTVYLQMNSLKPEDTAVYYCAARGTGYHGYGYWGQGTQVTVSS
  polyreactivity (PSR sort gate): high polyreactivity

## QVQLVESGVGLVQAGGSLRLSCAASGVTFYQYAMGWYRQAPGKERELVAAITRRGGSTSYADSVKGRFTISRDNAKNHVFLKMTRLIPEDTSVYYCNALYGSAFATQVESDYWGQGTQVNVSS
  polyreactivity (PSR sort gate): high polyreactivity

## QVQLGESGGGLVQAGGSLRISCAASGSILIANAMGWYRQAPGKERELVAPISRSGSTTYYADSVKGRFTISRDNAKNTVYLQMNSLKPEDTAVYYCNARYSLHSYYWFIYDSWGQGTQVTGSS
  polyreactivity (PSR sort gate): low polyreactivity

## QVQLVESGGGLVQAGGSLRLSCAASGSTFDFNAMGWYRQAPGKERELVAAITGSGGSTDYADSVKGRFTISRDNAKNTVYLQMNSMKPEDTAVYYCNAGKTIDYRDGVGYDHWGQGTQVTVSS
  polyreactivity (PSR sort gate): low polyreactivity

## QCQREESGGGLVQAGGRLRLSCAASGLILIYYAMGWYRQAPGKERELVAAITSSGGSTYYADSVKGRFTISRDNAKNTVYLQMNSLKREDTAVYYCAAYYSGDGYYWGQGTQVTVSS
  polyreactivity (PSR sort gate): high polyreactivity

## QVQLVESGGGLVQAGGSLRLSCAASGSIFNSYAMGWYRQAPGKERELVAAISKRGGSTYYADSVKGRFTISRDNAKNTVYLQMNSLKPEDTAVYYCAAEYYYAGWSYSYDYWGQGTQVTVSS
  polyreactivity (PSR sort gate): high polyreactivity

## QVQLVESGGGLVQAGGSLRLSCAASGNIFHDNAMGWYREAPGKERELVAAISDSGGSTYYADSVKGRFTISRDNAKNTVYFQMNSLQPEDTAVYYCDSGRTYYAPYQWWYDYWGQGTQVTVSS
  polyreactivity (PSR sort gate): high polyreactivity

## QVQLEESGGGLVQAGGSLRLSCAASGRIFLTYAMGWYRQAPGKERELVAAIRSRSGTTYYADSVKGRFTISRDNAKNTVYLQMNSLKPEDTAVYYCAAGGKSRSYYWGQGTQVTVSS
  polyreactivity (PSR sort gate): high polyreactivity

## QVQLVESGGGLVQAGGSLRLSCAASGLTFRYYAMGWYRQAPGKERELVAAISSRGASTYYADSVKGRFTISRDNAKNTVYLQMNSLKPEDTAVYYCAVRTYVYHWSFSSLPYDYWGQGTQVTVSS
  polyreactivity (PSR sort gate): high polyreactivity

## QVQLVESGGGLVQAGGSLRLSCAASGFTFRYYAMGWYRQAPGKERELVAAIRRGGTTNYADSVKGRFTISRDNAKNTVYLQMKSLKPEDTAVYYCNAGRGYSVWASIYNSRPFDYWGQGTQVTVSS
  polyreactivity (PSR sort gate): high polyreactivity

## QVQLVESGGGLVQAGGSLRLSCAASGSIFWGNAMGWYRQAPGKERELVADISGGDTYYADSVKGRFTISRDNAKNTVYLQMNSLKPEDTAVYYCAADVWQYFYPYGYYYWGLGTQVTVSS
  polyreactivity (PSR sort gate): high polyreactivity

## QVQLVESGGGLVQAGGSLRLSCAASGSIFDHNAMGWYRQAPGKEREFVARITSSGGGTYYADSVKGRFTISRDNAKNTVYLQMNSLKPEDTAVYYCAKTYYRQGARYPTLFYYWGQGTQVTVSS
  polyreactivity (PSR sort gate): low polyreactivity

## QVQLVESGGGLVQAGGSLRLSCAASGSIFGYNAMGWYRQAPGKERELVAVINASGASTYYADSVKGRFTISRDNAKNTVYLQMNSLKPEDTAVYYCAKDPFPFPGGDYWGQGTQVTVSS
  polyreactivity (PSR sort gate): low polyreactivity
